The text below walks through data of US6887468B1 (Board of Regents, The University of Texas System, priority 1999, dated 2005).

Series [1] concerns progressive disease in cancer patients. The settings on record: clinical trials; cited from earlier work.
Another series concerns VEGFR2 (KDR/Fc). Description: Co-precipitation assay, VEGF with VEGFR2/Fc in solution. The format is binding. The settings on record: F(ab′)2. Here is the method:
200 ng of soluble forms of VEGFR1 (Flt-1/Fc) or VEGFR2 (KDR/Fc, R&D Systems, Minneapolis, Minn.) were added for a total volume of 50 μl and incubated for 2 hrs. The receptor/Fc constructs were precipitated using Protein A-sepbarose beads and the resulting precipitate was washed 4 times with binding buffer.
Reducing sample buffer was added to the pellet and supernatant of each reaction and both were analyzed by 12% SDS-PAGE and transferred to PVDF membranes. […] The soluble receptor/Fc constructs were also detected by using peroxidase-conjugated goat anti-human Fc (Kirkegaard & Perry Laboratories, Inc.)
The receptor/Fc constructs were precipitated by incubation with Protein A sepharose beads. The precipitate was washed and resuspended in reducing sample buffer and separated by 12% SDS-PAGE and transferred to PVDF.

Series [2] is described as follows: Blood clearance of radioiodinated 2C3-GUS after intravenous injection. The format is in vivo, mice. The settings on record: 125I-labelled. The source says:
2C3-GUS was radioiodinated with ^125I to a specific activity of 5×10^6 cpm/μg.

In series [3] the test system is human NCI-H358 NSCLC tumors. The experiment in a line: Localization of 2C3-GUS after i.v. injection into tumor-bearing SCID mice. The format is in vivo.
The conditions of series [4]: dose-related; cited from earlier work.

In the case of `NC(=O)c1nnn(Cc2cc(Cl)c(C(=O)c3ccc(Cl)cc3)c(Cl)c2)c1N` [CAI, carboxyamidotriazole], in series [1], the “Disease stabilization, share of cancer patients having progressive disease before treatment” value is reported as 49%. Regarding 2C3 F(ab′)2: F(ab′)2 fragment of 2C3, the “Blocking of VEGF binding to VEGFR2/Fc in solution” value in the series with VEGFR2 (KDR/Fc) is “blocked the binding of VEGF to VEGFR2/Fc”. For 2C3-GUS, in series [2], the “t½ α” value is “about 6 hours” and the “t½ β” value is “about 25 hours”. The “Localization after i.v. injection” value in series [3] (immunohistochemistry on frozen tumor sections) was “specifically localized to tumor vasculature and surrounding tumor stroma”. For the same compound, the “Staining of normal tissues” value in series [3] (mouse, in vivo) is on record as “Normal tissues were unstained”. For “recombinant, humanized form of Genentech's anti-VEGF antibody: recombinant, humanized form of Genentech's anti-VEGF antibody evaluated in monkeys (Ryan et al., 1999)”, the “Preclinical safety finding in monkeys” value in series [4] is recorded as “physeal dysplasia”.
